Measurements from patent US20220409739A1 (OXFORD UNIVERSITY INNOVATION, published 2022).

B1: mitochondrial import receptor subunit TOM20 (other, UniProt Q15388 1-145, looked up)
chain: MVGRNSAIAAGVCGALFIGYCIYFDRKRRSDPNFKNRLRERRKKQKLAKERAGLSKLPDLKDAEAVQKFFLEEIQLGEELLAQGEYEKGVDHLTNAIAVCGQPQQLLQVLQQTLPPPVFQMLLTKLPTISQRIVSAQSLAEDDVE
B2: GAPDH-cMyc protein (enzyme)
chain: not shown
notes: also called GAPDH-cMye; not shown: cMyc tag

Tests used:
Assay in all cases: co-immunoprecipitation on cMyc beads from HEK293T cell lysate, western blot
GAPDH-cMyc protein = target: B2
Argonuate 2 (Ago2) = Argonuate 2 (Ago2) (UniProt Q9UKV8 1-859)
[1] = target: Insulin triphosphate receptor 3 (IPR3) (UniProt Q14573 1-2671)
Chain of Insulin triphosphate receptor 3 (IPR3) (Q14573 whole entry): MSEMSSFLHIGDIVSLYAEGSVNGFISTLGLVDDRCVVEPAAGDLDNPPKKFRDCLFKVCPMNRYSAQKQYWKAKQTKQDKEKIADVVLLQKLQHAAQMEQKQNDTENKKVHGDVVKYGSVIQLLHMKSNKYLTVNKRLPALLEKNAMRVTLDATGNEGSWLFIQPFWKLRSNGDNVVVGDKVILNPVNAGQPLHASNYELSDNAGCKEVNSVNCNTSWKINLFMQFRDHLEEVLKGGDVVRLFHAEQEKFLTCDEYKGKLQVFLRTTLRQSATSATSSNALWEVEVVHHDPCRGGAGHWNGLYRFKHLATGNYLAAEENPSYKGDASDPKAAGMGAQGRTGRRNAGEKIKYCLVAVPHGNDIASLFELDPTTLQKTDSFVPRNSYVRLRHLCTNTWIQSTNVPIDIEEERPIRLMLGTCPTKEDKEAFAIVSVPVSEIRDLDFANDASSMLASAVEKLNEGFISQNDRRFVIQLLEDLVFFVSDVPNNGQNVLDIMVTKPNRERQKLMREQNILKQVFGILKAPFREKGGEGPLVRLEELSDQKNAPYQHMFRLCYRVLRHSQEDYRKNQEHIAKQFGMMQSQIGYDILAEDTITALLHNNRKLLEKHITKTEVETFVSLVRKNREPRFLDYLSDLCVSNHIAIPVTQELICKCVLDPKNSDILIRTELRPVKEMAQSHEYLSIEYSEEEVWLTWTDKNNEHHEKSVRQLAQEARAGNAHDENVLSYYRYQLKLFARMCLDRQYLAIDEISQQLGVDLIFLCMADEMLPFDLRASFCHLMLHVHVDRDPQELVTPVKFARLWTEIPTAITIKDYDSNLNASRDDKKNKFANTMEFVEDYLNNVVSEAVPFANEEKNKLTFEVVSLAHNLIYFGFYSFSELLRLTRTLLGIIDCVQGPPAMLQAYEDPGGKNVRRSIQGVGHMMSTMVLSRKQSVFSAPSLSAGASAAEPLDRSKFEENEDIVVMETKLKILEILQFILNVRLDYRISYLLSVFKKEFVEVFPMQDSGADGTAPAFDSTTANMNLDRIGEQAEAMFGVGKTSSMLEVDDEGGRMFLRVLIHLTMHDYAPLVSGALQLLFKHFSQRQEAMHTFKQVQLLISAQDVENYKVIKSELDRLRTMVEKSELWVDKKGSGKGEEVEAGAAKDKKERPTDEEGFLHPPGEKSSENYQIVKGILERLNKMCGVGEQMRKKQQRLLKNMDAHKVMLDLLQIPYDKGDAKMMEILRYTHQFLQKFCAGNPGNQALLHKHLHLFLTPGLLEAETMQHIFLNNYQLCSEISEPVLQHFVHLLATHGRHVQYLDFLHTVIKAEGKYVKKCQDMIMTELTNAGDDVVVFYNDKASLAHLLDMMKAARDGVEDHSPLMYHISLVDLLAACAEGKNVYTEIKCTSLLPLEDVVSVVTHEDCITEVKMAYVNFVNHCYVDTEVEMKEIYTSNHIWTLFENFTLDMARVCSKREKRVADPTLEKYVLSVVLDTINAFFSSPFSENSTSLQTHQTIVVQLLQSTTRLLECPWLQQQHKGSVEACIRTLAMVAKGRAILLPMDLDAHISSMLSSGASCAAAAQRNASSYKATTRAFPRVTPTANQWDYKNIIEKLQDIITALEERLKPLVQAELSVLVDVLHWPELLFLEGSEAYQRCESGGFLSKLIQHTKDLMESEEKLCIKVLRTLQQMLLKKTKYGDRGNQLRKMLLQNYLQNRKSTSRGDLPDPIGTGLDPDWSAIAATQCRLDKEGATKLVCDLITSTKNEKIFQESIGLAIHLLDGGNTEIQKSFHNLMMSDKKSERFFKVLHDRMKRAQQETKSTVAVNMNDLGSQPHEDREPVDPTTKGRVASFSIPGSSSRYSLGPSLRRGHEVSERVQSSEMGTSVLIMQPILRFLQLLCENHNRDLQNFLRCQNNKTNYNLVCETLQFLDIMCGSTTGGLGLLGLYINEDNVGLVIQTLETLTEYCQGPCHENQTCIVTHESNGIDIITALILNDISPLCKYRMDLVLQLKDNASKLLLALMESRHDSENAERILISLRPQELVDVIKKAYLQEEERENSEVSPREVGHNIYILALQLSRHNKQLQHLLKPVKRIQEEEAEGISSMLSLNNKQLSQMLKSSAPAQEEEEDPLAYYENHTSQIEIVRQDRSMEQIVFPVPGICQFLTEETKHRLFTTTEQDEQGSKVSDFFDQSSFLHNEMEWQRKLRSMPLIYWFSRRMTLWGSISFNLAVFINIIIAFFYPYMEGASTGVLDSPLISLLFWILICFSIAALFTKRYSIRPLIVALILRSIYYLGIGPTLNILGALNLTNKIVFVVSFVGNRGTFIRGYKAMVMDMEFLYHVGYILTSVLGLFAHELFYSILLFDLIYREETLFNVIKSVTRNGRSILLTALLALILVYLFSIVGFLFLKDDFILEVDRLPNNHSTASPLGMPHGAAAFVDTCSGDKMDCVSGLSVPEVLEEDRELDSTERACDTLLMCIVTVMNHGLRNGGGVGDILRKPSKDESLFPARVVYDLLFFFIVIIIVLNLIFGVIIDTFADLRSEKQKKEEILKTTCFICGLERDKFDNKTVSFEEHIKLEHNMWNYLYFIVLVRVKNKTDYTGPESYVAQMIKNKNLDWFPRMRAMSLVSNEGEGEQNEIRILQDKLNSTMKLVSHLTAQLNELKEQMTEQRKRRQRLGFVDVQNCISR

Chain of Argonuate 2 (Ago2) (Q9UKV8 whole entry): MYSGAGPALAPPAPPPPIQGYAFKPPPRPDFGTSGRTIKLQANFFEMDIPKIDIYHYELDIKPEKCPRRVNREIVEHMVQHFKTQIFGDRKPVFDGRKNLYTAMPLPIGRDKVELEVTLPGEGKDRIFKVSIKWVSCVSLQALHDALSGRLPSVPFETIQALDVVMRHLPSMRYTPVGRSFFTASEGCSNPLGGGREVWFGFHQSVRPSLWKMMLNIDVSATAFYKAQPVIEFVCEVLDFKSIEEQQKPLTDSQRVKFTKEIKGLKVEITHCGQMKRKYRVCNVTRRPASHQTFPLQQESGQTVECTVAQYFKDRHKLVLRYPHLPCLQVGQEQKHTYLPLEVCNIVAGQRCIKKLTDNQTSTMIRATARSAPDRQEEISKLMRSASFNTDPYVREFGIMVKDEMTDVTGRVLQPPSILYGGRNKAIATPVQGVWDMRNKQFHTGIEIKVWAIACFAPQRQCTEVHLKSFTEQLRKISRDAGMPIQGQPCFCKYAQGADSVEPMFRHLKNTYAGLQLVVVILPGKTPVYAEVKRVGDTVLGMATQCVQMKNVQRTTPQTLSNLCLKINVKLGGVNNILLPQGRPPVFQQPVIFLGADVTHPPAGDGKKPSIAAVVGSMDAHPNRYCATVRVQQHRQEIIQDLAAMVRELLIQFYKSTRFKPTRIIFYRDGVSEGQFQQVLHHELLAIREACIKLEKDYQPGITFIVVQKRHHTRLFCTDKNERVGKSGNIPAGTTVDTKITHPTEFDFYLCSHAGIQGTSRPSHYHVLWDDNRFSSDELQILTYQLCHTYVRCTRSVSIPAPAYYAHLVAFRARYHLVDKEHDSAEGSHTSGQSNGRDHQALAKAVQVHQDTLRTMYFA
Chain of GAPDH-cMyc protein (P04406 whole entry): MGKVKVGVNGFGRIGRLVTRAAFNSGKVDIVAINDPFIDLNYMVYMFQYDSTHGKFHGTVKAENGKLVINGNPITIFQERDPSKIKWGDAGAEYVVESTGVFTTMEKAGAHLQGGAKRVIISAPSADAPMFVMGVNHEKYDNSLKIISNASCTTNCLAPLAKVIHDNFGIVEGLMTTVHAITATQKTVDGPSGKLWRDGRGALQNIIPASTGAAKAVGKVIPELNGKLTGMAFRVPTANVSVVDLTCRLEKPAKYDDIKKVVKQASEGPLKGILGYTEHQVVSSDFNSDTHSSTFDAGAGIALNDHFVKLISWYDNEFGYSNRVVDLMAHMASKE

Binder | binding result (GAPDH-cMyc protein) | binding result (Argonuate 2 (Ago2)) | binding result [1]
B1 | no binding | – | –
B2 | – | no binding | no binding
